Residue numbers refer to the chain shown, from its start. Names and notes keep the numbering of the source. Blank lines part the entries; values can stand above or below the binder they belong to.
Columns and labels:
ubiquitin (untagged) = ubiquitin (untagged) (UniProt P0CG47 1-76); experiment: ITC
[1] = target: N-terminally TAMRA-labeled monoubiquitin (UniProt P0CG47 1-76, TAMRA on the N-terminus); experiment: fluorescence polarisation

Kd (ubiquitin (untagged)): 430 mM
B1: SAGA DUB module containing Ubp8^C146A (complex)
chain 1: MSICPHIQQVFQNEKSKDGVLKTCNAARYILNHSVPKEKFLNTMKCGTCHEINSGATFMCLQCGFCGCWNHSHFLSHSKQIGHIFGINSNNGLLFCFKCEDYIGNIDLINDAILAKYWDDVCTKTMVPSMERRDGLSGLINMGSTAFMSSILQCLIHNPYFIRHSMSQIHSNNCKVRSPDKCFSCALDKIVHELYGALNTKQASSSSTSTNRQTGFIYLLTCAWKINQNLAGYSQQDAHEFWQFIINQIHQSYVLDLPNAKEVSRANNKQCECIVHTVFEGSLESSIVCPGCQNNSKTTIDPFLDLSLDIKDKKKLYECLDSFHKKEQLKDFNYHCGECNSTQDAIKQLGIHKLPSVLVLQLKRFEHLLNGSNRKLDDFIEFPTYLNMKNYCSTKEKDKHSENGKVPDIIYELIGIVSHKGTVNEGHYIAFCKISGGQWFKFNDSMVSSISQEEVLKEQAYLLFYTIRQVN
chain 2: MTEETITIDSISNGILNNLLTTLIQDIVARETTQQQLLKTRYPDLRSYYFDPNGSLDINGLQKQQESSQYIHCENCGRDVSANRLAAHLQRCLSRGARR
chain 3: MTMDTAQLKSQIQQYLVESGNYELISNELKARLLQEGWVDKVKDLTKSEMNINESTNFTQILSTVEPKALEMVSDSTRETVLKQIREFLEEIVDTQ
chain 4: MRSGDAEIKGIKPKVIEEYSLSQGSGPSNDSWKSLMSSAKDTPLQYDHMNRESLKKYFNPNAQLIEDPLDKPIQYRVCEKCGKPLALTAIVDHLEN

binding result [1]: binds
B2: USP4(8-925) wild-type (enzyme)
chain: RERPDAETQKSELGPLMRTTLQRGAQWYLIDSRWFKQWKKYVGFDSWDMYNVGEHNLFPGPIDNSGLFSDPESQTLKEHLIDELDYVLVPTEAWNKLLNWYGCVEGQQPIVRKVVEHGLFVKHCKVEVYLLELKLCENSDPTNVLSCHFSKADTIATIEKEMRKLFNIPAERETRLWNKYMSNTYEQLSKLDNTVQDAGLYQGQVLVIEPQNEDGTWPRQTLQSKSSTAPSRNFTTSPKSSASPYSSVSASLIANGDSTSTCGMHSSGVSRGGSGFSASYNCQEPPSSHIQPGLCGLGNLGNTCFMNSALQCLSNTAPLTDYFLKDEYEAEINRDNPLGMKGEIAEAYAELIKQMWSGRDAHVAPRMFKTQVGRFAPQFSGYQQQDSQELLAFLLDGLHEDLNRVKKKPYLELKDANGRPDAVVAKEAWENHRLRNDSVIVDTFHGLFKSTLVCPECAKVSVTFDPFCYLTLPLPLKKDRVMEVFLVPADPHCRPTQYRVTVPLMGAVSDLCEALSRLSGIAAENMVVADVYNHRFHKIFQMDEGLNHIMPRDDIFVYEVCSTSVDGSECVTLPVYFRERKSRPSSTSSASALYGQPLLLSVPKHKLTLESLYQAVCDRISRYVKQPLPDEFGSSPLEPGACNGSRNSCEGEDEEEMEHQEEGKEQLSETEGSGEDEPGNDPSETTQKKIKGQPCPKRLFTFSLVNSYGTADINSLAADGKLLKLNSRSTLAMDWDSETRRLYYDEQESEAYEKHVSMLQPQKKKKTTVALRDCIELFTTMETLGEHDPWYCPNCKKHQQATKKFDLWSLPKILVVHLKRFSYNRYWRDKLDTVVEFPIRGLNMSEFVCNLSARPYVYDLIAVSNHYGAMGVGHYTAYAKNKLNGKWYYFDDSNVSLASEDQIVTKAAYVLFYQRRDD

Kd [1]: 0.6 ± 0.17 nM
B3: USP4(8-925) C311A mutant (enzyme)
chain: B2 chain with C304A

Reference: paper doi:10.1101/238154 (bioRxiv, 2017)
